Results as given in patent US20100203041A1 (Genentech, published 2010).

T1: recombinant human EGFL7 (human, UniProt Q9UHF1 24-273, limits assumed)
T1 construct: Produced in E. coli and His6/poly-His-tagged; also called hEGFL7; poly-His-tagged EGFL7
T1 sequence (looked up): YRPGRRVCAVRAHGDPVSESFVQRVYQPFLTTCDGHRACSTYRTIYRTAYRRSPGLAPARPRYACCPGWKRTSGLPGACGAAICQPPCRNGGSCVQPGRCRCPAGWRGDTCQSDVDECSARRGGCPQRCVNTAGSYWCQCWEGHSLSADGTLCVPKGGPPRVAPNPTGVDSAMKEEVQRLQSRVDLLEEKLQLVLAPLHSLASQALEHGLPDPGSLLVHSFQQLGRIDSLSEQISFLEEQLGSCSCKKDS

T2: recombinant mouse EGFL7 (mouse, UniProt Q9QXT5 22-275, limits assumed)
T2 construct: also called mEGFL7; poly-His-tagged EGFL7
T2 sequence (looked up): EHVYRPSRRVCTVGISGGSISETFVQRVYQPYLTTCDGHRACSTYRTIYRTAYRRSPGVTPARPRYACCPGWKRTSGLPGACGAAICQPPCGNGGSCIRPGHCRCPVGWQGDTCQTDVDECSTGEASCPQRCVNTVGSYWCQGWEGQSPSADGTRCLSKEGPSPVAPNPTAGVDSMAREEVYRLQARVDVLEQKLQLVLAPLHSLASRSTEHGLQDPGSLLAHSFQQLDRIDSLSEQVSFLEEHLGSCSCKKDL

B1: anti-EGFL7 mumab 4F11.1.8 (antibody, IgG2b, V domains shown)
VH: QIQLVQSGPELKKPGETVKISCKASGHTFTTYGMSWVKQAPGKGLKWMGWINTHSGVPTYADDFKGRFAFSLETSASTAHLQINNLKNEDTATYFCARLGSSAVDYWGQGTTVTVSS
VL: DIVLTQSPASLAVSLGQRATISCKASQSVDYDGDSYMSWYQQKPGQPPKLLIYGASNLESGIPARFSGSGSGTDFTLNIHPVEEEDAATYYCQQNNEDPYTFGGGTKVEIKR
notes: ATCC PTA-7343
B2: polypeptide p2 (peptide)
peptide: RPRYACCPGWKRT

Tests used:
recombinant human EGFL7 = molecular target: T1, recombinant human EGFL7; assay: SPR, BIAcore 3000, room temperature; antibody on CM5 chip, poly-His-tagged EGFL7 injected; 1:1 global fit; Mab stock in 50 mM Tris/125 mM NaCl
Protocol: (§1) Binding affinity of the Mabs for both human and mouse EGFL7 was determined by surface plasmon resonance using Pharmacia BIAcore® 3000 (BIAcore AB, Uppsala, Sweden) at room temperature (see, e.g., Morton et al., Meth. Enzymol. 295:268-94 (1998)). Anti-EGFL7 antibodies were immobilized to the sensor chip (CM5) through primary amine groups. The carboxymethylated sensor chip surface matrix was activated by injecting 20 μl of a mixture of 0.025 M N-hydroxysuccinimide and 0.1 M N-ethyl-N′(dimethylaminopropyl) carbodiimide at 5 μl/min 5-10 μl of 10 μg/ml solution of […] in 10 mM sodium acetate, pH 4.5, were injected at 5 μl/min After coupling, unoccupied sites on the chip were blocked by injecting 20 μl of 1M ethanolamine, pH 8.5. The running buffer was PBS containing 0.05% polysorbate 20. For kinetic measurements, two-fold serial dilutions of poly-His-tagged EGFL7 in running buffer were injected over the flow cells for 3 minutes at a flow rate of 30 μl/min and the bound polyhis tagged EGFL7 was allow to dissociate for 20 minutes. The binding surface was regenerated by injecting 20 μl of 10 mM glycine.HCl (pH 1.5). […] There was no significant non-specific binding of poly-His-tagged EGFL7 to flow cell one. For calculating apparent binding affinity, data were analyzed using a 1:1 binding model using global fitting. […]

recombinant mouse EGFL7 = molecular target: T2, recombinant mouse EGFL7; assay: as above
Protocol: as §1

[1] = molecular target: B1; assay: peptide competition at 10-fold molar excess with EGFL7 protein; immunoprecipitation and SDS-PAGE

| Kd (recombinant human EGFL7) | Kd (recombinant mouse EGFL7) | binding result [1] | Binder |
| --- | --- | --- | --- |
| 0.473 nM | 0.756 nM | – | B1 |
| – | – | binds | B2 |
